Results: patent US20030078370

How the values were obtained:
[1] = test system: GFP protein fused to full length human cyclin E2 [GFP: P42212]
[2] = test system: GFP protein fused to human cyclin E2 splice variant [GFP: P42212]

## hemagluttinin-tagged human cdk2
[1]
  phosphorylation of histone H1 (kinase assay with 32P-ATP, autorad): can phosphorylate histone H1
[2]
  phosphorylation of histone H1 (kinase assay with 32P-ATP, autorad): cannot phosphorylate histone H1
